Here are results for one molecule from paper PMC3688787.

Square brackets hold non-standard residues; d marks the D form. Ends that are not written are not given here. Hyp = O=C(O)[C@@H]1C[C@@H](O)CN1

Holding throughout (assay): ELISA; ELISA-based binding assay: pVHL variant (10 µg/ml, 100 µl) coated on the plate overnight at 4°C, blocked with 5% BSA; TAMRA-labelled Hyp402-ODD peptide added at increasing concentrations, 1 h at 25°C; high salt buffer (10 mM Tris-HCl pH 8.5, 500 mM NaCl) without Arginine; fluorescence at 580 nm
A general note: In an ELISA, binding on a coated surface is turned into a signal by an enzyme label.

Test [1] addresses pVHL F136L mutant, 19 kDa form (human).
The target in test [2] is pVHL F119L mutant, 19 kDa form (human).
In test [3] the target is pVHL N78S mutant, 19 kDa form (human).

As to LDLEALA[Hyp]YIPADDDFQLRS (also: TAMRA (rhodamine) label, end not given here) [Hyp402-ODD target peptide of HIF-1α], the fold lower affinity than the WT in test [1] amounted to 5 fold; in test [2] it was 2.5 fold; in test [3], 2 fold.
